How the values were obtained:
Assay in all cases: ELISA on immobilized antigen, streptavidin-HRP detection; value is the average over oligomer, monomer and fibril
[1] = molecular target: amyloid beta 1-42 fibril (UniProt P05067)
[2] = molecular target: amyloid beta 1-42 monomer (UniProt P05067)
[3] = molecular target: amyloid beta 1-42 oligomer (UniProt P05067)
Sequence of amyloid beta 1-42 oligomer (P05067 672-713 limits assumed): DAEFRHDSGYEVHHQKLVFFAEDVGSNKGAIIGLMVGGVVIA

Sequence of amyloid beta 1-42 monomer (P05067 672-713 limits assumed): as above
Sequence of amyloid beta 1-42 fibril (P05067 672-713 limits assumed): as above

EC50 [1]: 0.031 µg/mL
EC50 [2]: 0.031 µg/mL
EC50 [3]: 0.031 µg/mL
Substance: 6E10 antibody (biotinylated)

Reference: US20190292247A1
